Assay results published in patent publication US20100041096.

Experiments:
His-BARD1 1-320 = His-BARD1 1-320 (UniProt Q99728)
His-BARD1 14-189 = His-BARD1 14-189 (UniProt Q99728)
Sequence of His-BARD1 14-189 (Q99728 14-189): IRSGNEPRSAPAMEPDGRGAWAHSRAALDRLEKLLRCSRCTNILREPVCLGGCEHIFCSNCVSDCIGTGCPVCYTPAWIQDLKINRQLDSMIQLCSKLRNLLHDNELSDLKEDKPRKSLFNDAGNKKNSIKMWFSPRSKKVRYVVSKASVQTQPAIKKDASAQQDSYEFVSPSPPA

Sequence of His-BARD1 1-320 (Q99728 1-320): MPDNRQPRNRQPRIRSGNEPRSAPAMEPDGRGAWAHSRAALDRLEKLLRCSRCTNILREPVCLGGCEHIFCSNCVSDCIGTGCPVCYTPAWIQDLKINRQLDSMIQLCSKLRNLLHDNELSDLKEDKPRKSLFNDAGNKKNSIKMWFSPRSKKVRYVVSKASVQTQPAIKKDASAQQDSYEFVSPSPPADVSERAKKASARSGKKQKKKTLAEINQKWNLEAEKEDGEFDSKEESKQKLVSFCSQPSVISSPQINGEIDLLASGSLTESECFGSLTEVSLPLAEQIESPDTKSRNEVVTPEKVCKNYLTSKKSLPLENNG

Row | Substance | in vitro kinase assay ([gamma-32P]ATP, autoradiography) (His-BARD1 1-320) | in vitro kinase assay ([gamma-32P]ATP, autoradiography) (His-BARD1 14-189)
1 | HA-CDK1-cyclin B1 | both His-BARD^14-180 and HA-BARD1^1-320 were phosphorylated in vitro with CDK2-cyclin E1 and CDK1-cyclinc B1 | both His-BARD^14-180 and HA-BARD1^1-320 were phosphorylated in vitro with CDK2-cyclin E1 and CDK1-cyclinc B1
2 | CDK2-cyclin E1 | both His-BARD^14-180 and HA-BARD1^1-320 were phosphorylated in vitro with CDK2-cyclin E1 and CDK1-cyclinc B1 | both His-BARD^14-180 and HA-BARD1^1-320 were phosphorylated in vitro with CDK2-cyclin E1 and CDK1-cyclinc B1
